Consider two molecules from publication PMC5098186, “Nuclear import of dimerized ribosomal protein Rps3 in complex with its chaperone Yar1” (Scientific Reports, 2016).

The labels stand for the following.
T1: GST-Kap60ΔIBB (S. cerevisiae, UniProt Q02821 81-542)
T1 construct: Kap60/Srp1 (importin α) of S. cerevisiae lacking the N-terminal IBB domain (80 amino acids); GST can be removed with TEV protease; also called GST-tagged Kap60ΔIBB; source: E. coli BL21 (DE3) Rosetta Star, immobilized on glutathione-agarose beads
T1 sequence (looked up): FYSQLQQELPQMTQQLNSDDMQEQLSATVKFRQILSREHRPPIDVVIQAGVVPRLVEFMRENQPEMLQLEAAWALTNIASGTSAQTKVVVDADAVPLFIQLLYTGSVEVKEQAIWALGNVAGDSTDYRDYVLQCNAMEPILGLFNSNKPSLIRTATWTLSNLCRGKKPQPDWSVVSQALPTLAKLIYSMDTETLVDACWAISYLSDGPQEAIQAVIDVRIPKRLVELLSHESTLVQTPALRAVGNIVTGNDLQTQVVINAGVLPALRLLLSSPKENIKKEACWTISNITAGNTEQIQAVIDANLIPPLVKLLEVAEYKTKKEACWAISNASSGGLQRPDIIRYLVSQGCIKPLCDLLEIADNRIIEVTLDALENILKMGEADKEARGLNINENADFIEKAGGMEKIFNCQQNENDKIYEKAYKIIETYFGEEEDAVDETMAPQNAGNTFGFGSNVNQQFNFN

T2: GST-Kap123 (S. cerevisiae, UniProt P40069 1-1113)
T2 construct: Kap123 (karyopherin β4) of S. cerevisiae, recombinant; also called GST-tagged Kap123; source: E. coli BL21 (DE3) Rosetta Star, immobilized on glutathione-agarose beads
T2 sequence (looked up): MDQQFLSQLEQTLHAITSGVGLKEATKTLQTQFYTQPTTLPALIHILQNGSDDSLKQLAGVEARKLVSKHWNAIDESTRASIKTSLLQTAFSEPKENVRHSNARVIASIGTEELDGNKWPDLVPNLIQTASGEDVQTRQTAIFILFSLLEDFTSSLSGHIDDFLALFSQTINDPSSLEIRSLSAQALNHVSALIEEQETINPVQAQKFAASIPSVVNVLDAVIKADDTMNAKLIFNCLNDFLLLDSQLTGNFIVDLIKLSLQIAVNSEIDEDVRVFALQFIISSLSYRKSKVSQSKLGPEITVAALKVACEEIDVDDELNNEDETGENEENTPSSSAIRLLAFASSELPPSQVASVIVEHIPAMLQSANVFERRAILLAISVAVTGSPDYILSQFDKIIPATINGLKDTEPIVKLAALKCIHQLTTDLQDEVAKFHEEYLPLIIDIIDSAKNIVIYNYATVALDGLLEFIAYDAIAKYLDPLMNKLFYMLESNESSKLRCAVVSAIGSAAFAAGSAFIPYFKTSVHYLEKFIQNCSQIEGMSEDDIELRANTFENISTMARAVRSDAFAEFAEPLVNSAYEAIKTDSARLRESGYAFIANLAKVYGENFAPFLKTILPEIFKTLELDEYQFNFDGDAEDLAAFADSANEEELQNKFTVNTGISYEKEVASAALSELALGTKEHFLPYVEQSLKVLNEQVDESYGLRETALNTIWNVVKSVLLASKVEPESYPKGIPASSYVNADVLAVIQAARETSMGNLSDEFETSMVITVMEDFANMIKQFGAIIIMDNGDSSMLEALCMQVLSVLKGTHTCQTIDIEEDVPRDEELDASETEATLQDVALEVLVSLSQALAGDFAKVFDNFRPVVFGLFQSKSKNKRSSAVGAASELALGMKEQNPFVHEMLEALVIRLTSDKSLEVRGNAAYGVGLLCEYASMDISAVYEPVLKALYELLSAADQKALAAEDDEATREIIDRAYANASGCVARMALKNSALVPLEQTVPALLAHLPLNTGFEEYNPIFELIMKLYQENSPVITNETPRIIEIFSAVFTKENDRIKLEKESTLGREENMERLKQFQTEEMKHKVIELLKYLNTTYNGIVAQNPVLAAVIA

T3: Kap60ΔIBB (S. cerevisiae, UniProt Q02821 81-542)
T3 construct: Kap60/Srp1 (importin α) of S. cerevisiae lacking the N-terminal IBB domain (80 amino acids); also called purified Kap60ΔIBB; purified Kap60; source: E. coli BL21 (DE3) Rosetta Star, purified (glutathione-agarose, eluted with TEV protease)
T3 sequence (looked up): T1 sequence (looked up)

B1: His6-Rps3 (natural protein, S. cerevisiae, UniProt P05750 1-240, looked up)
chain: MVALISKKRKLVADGVFYAELNEFFTRELAEEGYSGVEVRVTPTKTEVIIRATRTQDVLGENGRRINELTLLVQKRFKYAPGTIVLYAERVQDRGLSAVAQAESMKFKLLNGLAIRRAAYGVVRYVMESGAKGCEVVVSGKLRAARAKAMKFADGFLIHSGQPVNDFIDTATRHVLMRQGVLGIKVKIMRDPAKSRTGPKALPDAVTIIEPKEEEPILAPSVKDYRPAEETEAQAEPVEA
notes: ribosomal protein Rps3 of S. cerevisiae, recombinant; also called wild-type Rps3 (of the His6-Rps3/Flag-Yar1 complex); source: E. coli BL21 (DE3) Rosetta Star, purified as His6-Rps3/Flag-Yar1 complex (Ni-NTA agarose); not shown: His6, N-terminal, kept
B2: Flag-Yar1 (natural protein, S. cerevisiae, UniProt P46683 1-200, looked up)
chain: MGLHSEPLDQEDQDTIILDARAGDLDSLKDIFTTLVSPELLSTCKESESDSTALHMAAANGHIETVRYILETVSRANSAEDLKAFVNEVNKTGNTALHWASLNGKLDVVKLLCDEYEADPFIRNKFGHDAIFEAENSGKEEVETYFLKKYDVEPEDDEEDTQTEGKNSVQITKGTEIEQVTKEATEALREETEKLNINKD
notes: Yar1, specific chaperone of Rps3, S. cerevisiae, recombinant

What all share (details): both partners purified
The target in assay [1] is T1, GST-Kap60ΔIBB. Nature of the assay: pull-down; GST-tagged importins immobilized on glutathione-agarose beads, incubated with purified His6-Rps3/Flag-Yar1 complex or purified Flag-Yar1; 50 mM Tris pH 7.5, 150 mM NaCl, 1 mM DTT; eluted by boiling (Fig. 2b, Supplementary Fig. S2) or by TEV cleavage (Fig. 2c); Coomassie staining or Western blotting. In general terms: In western blotting, separated proteins are transferred to a membrane and probed.

Assay [2] has as its target T2, GST-Kap123. Described as above.
Assay [3] addresses T3, Kap60ΔIBB. Nature of the assay: pull-down; His6-Rps3/Flag-Yar1 complex immobilized via His6-Rps3 on Ni-NTA agarose, incubated with increasing amounts of purified Kap60ΔIBB for 1 h at 4 °C; eluted with 300 mM imidazole (Ni-NTA eluate); Coomassie staining.
Assay [4] deals with B1. Described as above.

On to B1, for which the binding result in assay [1], in assay [2] and in assay [3] was “binds” in each case.

B2: in assay [4], the binding result is “binds”.
